In patent publication US20250297026A1 (PETMEDIX, published 2025):

T1: canine CD20 (canine, UniProt Q3C2E2 1-297)
T1 construct: Full-length canine CD20 stably expressed on MDCK II (or HEK293) cells for flow cytometry and ADCC; In the CDC assay it is natively expressed on CLBL-1 canine lymphoma cells; also called cCD20; dog CD20
T1 chain: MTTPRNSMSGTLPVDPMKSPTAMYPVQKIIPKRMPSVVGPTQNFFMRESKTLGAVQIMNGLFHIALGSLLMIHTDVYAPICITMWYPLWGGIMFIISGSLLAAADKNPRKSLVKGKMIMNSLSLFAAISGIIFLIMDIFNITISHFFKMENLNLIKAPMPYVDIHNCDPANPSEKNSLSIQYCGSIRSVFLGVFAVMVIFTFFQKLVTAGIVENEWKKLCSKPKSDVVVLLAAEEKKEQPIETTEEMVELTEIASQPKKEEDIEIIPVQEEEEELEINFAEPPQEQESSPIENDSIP


Biological target: T1, canine CD20
Experiment: flow cytometry on cCD20-expressing MDCK II cells, 10 ug/ml antibody, FITC anti-canine IgG (FIG. 3A)
Experimental: FIG. 3. Binding assessment of anti-canine CD20 mAbs using flow cytometry. PMX001, PMX002, PMX003, PMX004, PMX005, 1 E4-cIGGB, 4E1-7-clGGB (see A) and PMX006, PMX007, PMX008, PMX009, PMX010, PMX011 (see B) and PMX003, PMX066, PMX067, PMX069, PMX070, PMX071, PMX072, PMX073, PMX074, PMX075, PMX076, PMX077, PMX078, PMX079, PMX080, PMX081, 1E4-cIGGB, 4E1-7-clGGB (see C) were applied to cCD20-expressing MDCK II cells at 10 μg/ml. Rituximab-clGGB (grey shadow) was used as the isotype control and presented in each plot. (D) Affinity determination of PMX003, PMX115 and PMX070 mAbs. Binding of 1:2 serially diluted antibodies to cCD20-expressing MDCK II cells was assessed in a binding assay and the mean values of the fluorophore signal was determined. The plot of mean fluorescence intensity (MFI) versus concentration was used to determine EC50 of binding, using non-linear regression, which is the apparent Kd of antibody binding to cell surface expressed canine CD20.
HEK293 cells or MDCK II cells were stably transfected with a vector encoding the full length of canine CD20 cDNA. Binding of antibodies to these cells were assessed using flow cytometry. […] Cells incubated with anti-canine IgG FITC secondary antibody and without primary anti-canine CD20 antibody, or with isotype control primary antibody, were used as negative controls. The data were acquired on either a Beckman Coulter CytoFLEX or a BD Accuri C6 Plus flow cytometer and analysed using FlowJo software. […] Graphs using mean fluorescence intensity (MFI) values of the FITC channel vs concentration of antibody were plotted in GraphPad Prism (FIG. 3D).

Binder	binding result
PMX001 mAb (antibody, V domains shown, Fully canine mAb; Expressed in CHO cells) VH: EVQLVESGGDLVKPGGSLRLSCVASGFTFSSYHMSWVRQAPGKGLQWVAYINSGGSSTTYADAVKGRFTISRDNAKKTLYLQMNSLRAEDTAVYYCSTFDYWGQGTLVTVSS VL: SYVLTQLPSRNVTLKQPAHITCGGDNIGSKSVHWYQQKLGQAPVLIIYYDTRRPTGIPERFSGANSGNTATLTISGALAEDEADYYCQVWDSSGNVFGGGTHLTVLG	binds

Biological target: T1, canine CD20
Experiment: cell-based or functional assay

Binder	ADCC EC50 [nM]	ADCC Maximum killing (%)	CDC EC50 [nM]	CDC Maximum killing (%)
PMX066 (antibody, V domains shown) VH: AVQLVESGGDLVKPGGSLRLSCVASGITFSRYHMSWVRQAPGKGLQWVAYINSGGSATSYTDAVKGRFSISRDNGKNTLYLQMNSLRVEDSAVYYCTTLDLWGQGTLVTVSS VL: SYVLTQLPSKNVTLKQPAHITCGGDNIGSKSVHWYQQKLGQAPVLIIYYDSRRPTGIPERFSGANSGNTATLTINGALAEDEADYYCQMWDSSANVFGGGTHLTVL	0.15	47	12.1	98.5
PMX081 (antibody, V domains shown) VH: EVQLVQSGGDLVKPGGSLRLSCVASGYTFTRYHMSWVRQAPGKGLQWVAFINSDGTGITYGDAVKGRFTISRDNAKNTLYLQMNSLRAEDTAIYYCTTFDSWGQGTLVTVSS VL: SYVLTQLPSKNVTLKQPAHITCGGDNIGSKSVHWYQQKLGQAPILIIYYDSRRPTGIPERFSGANSGNTATLTISGALAEDEADYYCQVWDSSGNVFGGGTHLTVL	0.16	51	10.6	98.5
PMX072 (antibody, V domains shown) VH: EVQLVESGGDLVKPGGSLRLSCVASGFTFSRYHMSWVRQAPGKGLQWVAFINTGRSSTNYADAVAGRFTISRDNAKNTLYLQMNSLRAEDTAVYYCSTLDYWGQGTLVTVSS VL: SYVLTQLPSKNVTLKQPAHITCGGDNIGSKSVHWYQQKLGQAPVLIIYYDSSRPTGIPERFSGANSGNTATLTISGALAEDEADYYCQVWDSSANVFGGGTHLTVL	0.18	50	19.6	91.6
PMX071 (antibody, V domains shown) VH: EVHLVESGGDLVKPGGSLRLSCVASGITFNRYYMNWVRQTPGKGLQWVAYIDSGGSPTTYADAVKGRFTISRDNAKNTLYLQMNSLRAEDTAVYYCTSFDYWGQGTLVTVSS VL: SYVLTQLPSKNVTLKQPAHITCGGDNIGSKSVHWYQQKLGQAPILIIYYDTSRPTGIPERFSGANSGNTATLTISGALAEDEADYYCQVWDSSANVFGGGTHLTVL	0.15	41	28.9	94.3
PMX076 (antibody, V domains shown) VH: EVQLVESGGDLVKPGGSLRLSCVASGITFSRYYMNWVRQAPGKGLQWVAYIDSGGSPTTYADAVKGRFTISRDNAKKALYLQMNSLRAEDTAVYYCTSFDYWGQGTLVTVSS VL: SYVLTQLPSKNVTLKQPAHITCGGDNIGSKSVHWYQQKLGQAPVLIIYYDSSRPTGIPERFSGANSGNTATLTISGALAEDEADYFCQVWDSSANVFGGGTHLTVL	0.14	49	7.76	98.3
PMX080 (antibody, V domains shown) VH: EVQLVESGGDLVKPGGSLRLSCVASGLTFSRYYMNWVRQAPGKGLQWVAYIDSGGSPTNYADAVKGRFTISRDNAKNTLYLQMNSLRAEDTAVYYCSSFDYWGQGTLVTVSS VL: SYVVTQLPSNTVTLKQPAHITCGGDNIGSKSVHWYQQKLGQAPVLIIYYDSRRPTGIPERFSGANSGNTATLTISGALAEDEADYYCQVWDSSANVFGGGTHLTVL	0.13	50	21.9	96.2
PMX069 (antibody, V domains shown) VH: EMQLVESGGALVKPGGSLRLSCVASGFTFRRYHMSWVRQAPGQGLQWVAYIDSDGSPTSYGDSVKGRFTISRDNAKNTLFLQMNSLRVDDTAVYYCTTLDYWGRGTLVTVSS VL: SYVLTQVPSKNVTLKQPAHITCGGDNIGGKSVHWYQQKLGQAPLLIIYYDTRRPTGIPERFSGANSGNTATLTISRALAEDEADYYCQVWDSSGNVFGGGTHLTVI	0.09	38	7.6	98.2
PMX067 (antibody, V domains shown) VH: EIQLVESGGDLVKPGGSLRLSCVASGFTFSRYHMSWVRQAPGKGLQWVAYINTGGSNTNYADAVKGRFTISRDNAKNTLYLQMNSLRAEDTAVYYCTTLDSWGQGTLVTVSS VL: SYVLTQLPFKNVTLKQPAHITCGGDNIGSKSVHWYQQKLGQAPVLIIYYDSRRPTGIPERFSGANSGNTATLTISGALAEDEADYYCQVWDSSVNVFGGGTHLTVL	0.13	50	11.3	97.8
PMX078 (antibody, V domains shown) VH: EVQLVESGGDLVKPGGSLRLSCVASGLTFSRYHMSWIRQAPGKGLQWVAYISSGGSSTNYAGSVKGRFTVSRDNAKNTLYLQMNSLRAEDTAVYYCTSLDYWGQGTLVTVSS VL: SYVLTQLPSKNVTLKQPAHITCGGDNIGSKSVHWYQQKLGQAPVLIIYYDSRRPTGIPERFSGANSGNTATLTISGALAEDEADYYCQVWDSSDNVFGGGTHLTVL	0.22	40	9.08	98.8
PMX075 (antibody, V domains shown) VH: EVQLVESGGDLVKPGGSLRLSCVASGITFSRYHMSWVRQAPGKGLQWVAFINTGRSSTNYADAVAGRFTISRDNAKNTLYLQMNGLTVEDTAVYYCSTLDYWGQGTLVTVSS VL: SYVLTQLPSKSVTLKQPAHITCGGDNIGSKSVHWYQQKLGQAPILIIYYDNNRPTGIPERFSGANSGNTATLTISGALAEDEADYYCHVWDSSVNVFGGGTHLTVL	0.14	46	6.02	98.9
PMX074 (antibody, V domains shown) VH: EVQLVESGGDLVKPGGSLRLSCVASGFTFSRYYMTWVRQAPGKGLQWVAYINSDRRSTTYADAVKGRFTISRDNAKNTLYLQMNSLRAEDTAVYYCTTLEYWGQGTLVTVSS VL: SYVLTQLPSKNVTLKQPAHITCGGDNIGSKSVHWYQQKLGQAPVLIIYYDSRRPTGIPERFSGANSGNTATLTINGALAEDEADYYCQVWDSSANVFGGGTHLTVL	0.12	51	6.8	98.9
PMX077 (antibody, V domains shown) VH: EVQLVESGGDLVKPGGSLRLSCVASGITFSRYYMNWVRQAPGKGLQWVAYINSGGSPTTYADAVKGRFTISRDNAKNTLYLQMNSLRAEDTAVYYCTSFDYWGQGTLVTVSS VL: SYVLTQLPSKNVTLKQPAHITCGGDNIGSKSVHWYQQKLGQAPILIIYYDTSRPTGIPERFSGANSGNTATLTISGALAEDEADYYCQVWDSSANVFGGGTHLTVL	0.13	42	9.84	98.7
PMX079 (antibody, V domains shown) VH: EVQLVESGGDLVKPGGSLRLSCVASGLTFSRYHMSWVRQAPGKGLQWVAFINSGRSDTTYADAVKGRFTISRDNAKNTLYLQMNSLRAEDTAVYYCTTFDYWGQGTLVTVSS VL: SYVLTQLPSKNVTLKQPAHITCGGDNIGSKSVHWYQQKLGQAPALIIYYDSSRPTGIPERFSGANSGNTATLTISGALAEDEADYYCQVWDSSANVFGGGTHLTVL	0.12	52	16.4	96.7
PMX073 (antibody, V domains shown) VH: EVQLVESGGDLVKPGGSLRLSCVASGFTFSRYYMNWVRQAPGKGLQWVAFITSGGSSTSYGDAVKGRFTISRDNAKNTLYLQMNSLRAEDTAVYYCTSFDYWGQGTLVTVSS VL: SYVLTQLPSKNVTLKQPAHITCGGDNIGSKSVHWYQQKLGQAPVLIIYYASSRPTGIPERFSGANSGNTATLTISGALAEDEADYYCQVWDSSANVFGGGTHLTVL	0.21	48	11.1	96.3
